Measured values published in PMC12370899, “Promiscuous and multivalent interactions between Eps15 and partner protein Dab2 generate a complex interaction network” (Nature Communications, 2025).

T1: Eps15IDR (Eps15's own intrinsically disordered region) (human, UniProt P42566 481-896)
T1 construct: Eps15, UniProt P42566, C-terminal intrinsically disordered region; limits 481-896 from the N-terminal residues 481-521, the overlapping stretches 481-581 to 761-896 and the primer names Eps15_481_Nde1_fw and Eps15_896_Not1_rv; in pET28-6His-GB1; 15N-labelled where it was the observed protein; source: E. coli Rosetta (DE3), purified (nickel column, TEV cleavage, SEC); not shown: 6His, N-terminal, …
T1 sequence (looked up): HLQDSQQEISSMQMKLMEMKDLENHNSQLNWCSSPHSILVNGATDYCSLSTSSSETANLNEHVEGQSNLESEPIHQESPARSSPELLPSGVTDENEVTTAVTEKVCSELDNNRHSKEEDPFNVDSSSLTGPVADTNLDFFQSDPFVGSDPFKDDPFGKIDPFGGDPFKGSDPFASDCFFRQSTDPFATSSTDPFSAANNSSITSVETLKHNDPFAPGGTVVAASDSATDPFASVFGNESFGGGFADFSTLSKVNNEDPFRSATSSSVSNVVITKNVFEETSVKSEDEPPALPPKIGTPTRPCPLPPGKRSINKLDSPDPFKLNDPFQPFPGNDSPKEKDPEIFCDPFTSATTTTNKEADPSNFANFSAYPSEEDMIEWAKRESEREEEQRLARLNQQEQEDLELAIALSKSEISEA

B1: Dab2_(320–495) (domain or fragment, UniProt P98082 320-495, looked up)
chain: KKENSSSSSTPLSNGPLNGDVDYFGQQFDQISNRTGKQEAQAGPWPFSSSQTQPAVRTQNGVSEREQNGFSVKSSPNPFVGSPPKGLSIQNGVKQDLESSVQSSPHDSIAIIPPPQSTKPGRGRRTAKSSANDLLASDIFAPPVSEPSGQASPTGQPTALQPNPLDLFKTSAPAPV
notes: gene bought from Twist Bioscience, in pET28a; 15N-labelled where it was the observed protein; The S328C mutant was used only for microscopy of droplets and is not written; also called Dab2 fragment; source: E. coli Rosetta (DE3), purified (nickel column, SEC); not shown: His-tag, C-terminal, kept
B2: Eps15 EH123 (EH1-EH2-EH3, the full EH-domain containing region) (domain or fragment, human, UniProt P42566 1-310, looked up)
chain: MAAAAQLSLTQLSSGNPVYEKYYRQVDTGNTGRVLASDAAAFLKKSGLPDLILGKIWDLADTDGKGILNKQEFFVALRLVACAQNGLEVSLSSLNLAVPPPRFHDTSSPLLISGTSAAELPWAVKPEDKAKYDAIFDSLSPVNGFLSGDKVKPVLLNSKLPVDILGRVWELSDIDHDGMLDRDEFAVAMFLVYCALEKEPVPMSLPPALVPPSKRKTWVVSPAEKAKYDEIFLKTDKDMDGFVSGLEVREIFLKTGLPSTLLAHIWSLCDTKDCGKLSKDQFALAFHLISQKLIKGIDPPHVLTPEMIPP
notes: Eps15, UniProt P42566, the three N-terminal EH domains in row; in pET28-6His-GB1; 15N-labelled where it was the observed protein; source: E. coli Rosetta (DE3), purified (nickel column, TEV cleavage, SEC); not shown: 6His, N-terminal, cleaved; GB1, N-terminal, cleaved
B3: Eps15 EH2 domain (domain or fragment, human, UniProt P42566 121-215, looked up)
chain: PWAVKPEDKAKYDAIFDSLSPVNGFLSGDKVKPVLLNSKLPVDILGRVWELSDIDHDGMLDRDEFAVAMFLVYCALEKEPVPMSLPPALVPPSKR
notes: Eps15, UniProt P42566, second EH domain; in pET41c; The NdeI primer puts a start methionine before P121; non-cleavable C-terminal His-tag from pET41c; 15N-labelled where it was the observed protein; source: E. coli Rosetta (DE3), purified (nickel column, SEC); not shown: His-tag, C-terminal, kept

What was measured:
Conditions in all cases: both partners purified
[1] = biological target: B2; experiment: NMR titration; competition: equimolar EH123, Eps15IDR and Dab2(320-495) together, observed in turn on 15N EH123, 15N Eps15IDR and 15N Dab2(320-495); NMR buffer pH 6, 25 °C
[2] = biological target: T1, Eps15IDR (Eps15's own intrinsically …); experiment: NMR titration; equimolar unlabelled Eps15IDR (200 µM) added to 200 µM 15N EH123; 1H-15N TROSY-HSQC CSPs and R1rho at 1200 MHz; NMR buffer pH 6, 25 °C
[3] = biological target: B1; experiment: NMR CPMG relaxation dispersion; 100 µM 15N Dab2(320-495) with 10 µM (10%) EH2; 600 and 900 MHz; 12 residues of helixN and the NPF motif fitted globally, two-site exchange model (ChemEx); NMR buffer pH 6, 25 °C

Binder: B1
binding result [1]: binds

Binder: B2
binding result [2]: binds

Binder: B3
Kd [3]: 196 µM
